Assay: In vitro metabolic stability (release of free MMAE, LC/MS), mouse plasma
Format: in vitro ADME
Conditions: 1 μM, 37° C., 10 days
Protocol: FIG. 11: Stability of LHRHD-(mc-vc-PABC)-MMAE (i.e. LD5-mc-vc-PABC-MMAE) in human plasma, mouse plasma, and cell culture media (c-media). The stability was measured based on the presence of free MMAE detected in the samples by LC-MS at each time point relative to time 0. Error Bars are standard deviations (STDV), p>0.05 and n=9 (mean is calculated from samples in triplicate in 3 independent experiments).
The metabolic stability of LD5-(mc-vc-PABC)-MMAE was investigated in cell culture media (c-media), human and mouse plasma. An LC/MS method was developed to detect both free MMAE and the presence of any degraded species from the whole construct, LD5-(mc-vc-PABC)-MMAE. To evaluate the stability of the valine-citrulline linkage, LD5-(mc-vc-PABC)-MMAE at 1 μM was incubated in c-media, human and mouse plasma at 37° C. for a period of 10 days. Aliquots were taken at pre-determined time intervals (t=0, 1, 2, 4, 7, 10 days) and analysed by LC/MS for the release of free MMAE.

With `CCNC(=O)[C@@H]1CCCN1C(=O)[C@H](CCCNC(=N)N)NC(=O)[C@H](CC(C)C)NC(=O)[C@@H](CCCCNC1CC(=O)N(CCCCCC(=O)N[C@H](C(=O)N[C@@H](CCCNC(N)=O)C(=O)Nc2ccc(COC(=O)N(C)[C@H](C(=O)N[C@H](C(=O)N(C)[C@@H]([C@@H](C)CC)[C@@H](CC(=O)N3CCC[C@H]3[C@H](OC)[C@@H](C)C(=O)N[C@H](C)[C@@H](O)c3ccccc3)OC)C(C)C)C(C)C)cc2)C(C)C)C1=O)NC(=O)[C@H](Cc1ccc(O)cc1)NC(=O)[C@H](CO)NC(=O)[C@H](Cc1c[nH]c2ccccc12)NC(=O)[C@H](Cc1c[nH]cn1)NC(=O)[C@@H]1CCC(=O)N1` (stereo partly shown) [LD5-mc-vc-PABC-MMAE] the “total drug released as MMAE” value was “less than 5%”.

From US20220211860A1, “PEPTIDE DERIVATIVES AND CONJUGATES THEREOF FOR TREATING CANCER” (priority 2019, published 2022)
